Results from the RNAGym collection of RNA variant scans (doi:10.1021/acssynbio.7b00057).

B1: Pistol ribozyme (parent)
chain: GGGUCGUUGUUCCAUAAUCGCGUGGAUAUGGCACGCAAGUUUCUACCGGGCACCGUAAAUGUCCGACUGGAGCCGUUCGGGCGGCUAUAAACAGACCUCAGGCCCGAAGCGUGGCGGCACCUGCCGCCGGUGGUAAAAAAGAUCGGAAGAGCACACGUCU

Variants of: B1
Assay: aptazyme ON/OFF ratio, guanine; higher = stronger switching; co-transcriptional cleavage with and without guanine

Variant	aptazyme ON/OFF ratio
GGGUCGAGGUCCGAUAAUCGCGUGGAUAUGGCACGCAAGUUUCUACCGGGCACCGUAAAUGUCCGACUGGAGCCGUUCGGGCGGCUAUAAACAGACCUCAGGCCCGAAGCGUGGCGGCACCUGCCGCCGGUGGUAAAAAAGAUCGGAAGAGCACACGUCU [U7A U8G U11C C13G]	1.35
GGGUCGGCGUUAGAUAAUCGCGUGGAUAUGGCACGCAAGUUUCUACCGGGCACCGUAAAUGUCCGACUGGAGCCGUUCGGGCGGCUAUAAACAGACCUCAGGCCCGAAGCGUGGCGGCACCUGCCGCCGGUGGUAAAAAAGAUCGGAAGAGCACACGUCU [U7G U8C C12A C13G]	1.1
GGGUCGAACUGACAUAAUCGCGUGGAUAUGGCACGCAAGUUUCUACCGGGCACCGUAAAUGUCCGACUGGAGCCGUUCGGGCGGCUAUAAACAGACCUCAGGCCCGAAGCGUGGCGGCACCUGCCGCCGGUGGUAAAAAAGAUCGGAAGAGCACACGUCU [U7A U8A G9C U11G C12A]	1.1
GGGUCGUGGGCUGAUAAUCGCGUGGAUAUGGCACGCAAGUUUCUACCGGGCACCGUAAAUGUCCGACUGGAGCCGUUCGGGCGGCUAUAAACAGACCUCAGGCCCGAAGCGUGGCGGCACCUGCCGCCGGUGGUAAAAAAGAUCGGAAGAGCACACGUCU [U8G U10G U11C C12U C13G]	1.14
GGGUCGCUCUGUGAUAAUCGCGUGGAUAUGGCACGCAAGUUUCUACCGGGCACCGUAAAUGUCCGACUGGAGCCGUUCGGGCGGCUAUAAACAGACCUCAGGCCCGAAGCGUGGCGGCACCUGCCGCCGGUGGUAAAAAAGAUCGGAAGAGCACACGUCU [U7C G9C U11G C12U C13G]	1.12
GGGUCGUGCCAGCAUAAUCGCGUGGAUAUGGCACGCAAGUUUCUACCGGGCACCGUAAAUGUCCGACUGGAGCCGUUCGGGCGGCUAUAAACAGACCUCAGGCCCGAAGCGUGGCGGCACCUGCCGCCGGUGGUAAAAAAGAUCGGAAGAGCACACGUCU [U8G G9C U10C U11A C12G]	1.06
GGGUCGAGCGAGAAUAAUCGCGUGGAUAUGGCACGCAAGUUUCUACCGGGCACCGUAAAUGUCCGACUGGAGCCGUUCGGGCGGCUAUAAACAGACCUCAGGCCCGAAGCGUGGCGGCACCUGCCGCCGGUGGUAAAAAAGAUCGGAAGAGCACACGUCU [U7A U8G G9C U10G U11A C12G C13A]	1.33
GGGUCGAAACUCGAUAAUCGCGUGGAUAUGGCACGCAAGUUUCUACCGGGCACCGUAAAUGUCCGACUGGAGCCGUUCGGGCGGCUAUAAACAGACCUCAGGCCCGAAGCGUGGCGGCACCUGCCGCCGGUGGUAAAAAAGAUCGGAAGAGCACACGUCU [U7A U8A G9A U10C C13G]	1.04
GGGUCGCUUCACGAUAAUCGCGUGGAUAUGGCACGCAAGUUUCUACCGGGCACCGUAAAUGUCCGACUGGAGCCGUUCGGGCGGCUAUAAACAGACCUCAGGCCCGAAGCGUGGCGGCACCUGCCGCCGGUGGUAAAAAAGAUCGGAAGAGCACACGUCU [U7C G9U U10C U11A C13G]	1.04
GGGUCGAAUAUUAAUAAUCGCGUGGAUAUGGCACGCAAGUUUCUACCGGGCACCGUAAAUGUCCGACUGGAGCCGUUCGGGCGGCUAUAAACAGACCUCAGGCCCGAAGCGUGGCGGCACCUGCCGCCGGUGGUAAAAAAGAUCGGAAGAGCACACGUCU [U7A U8A G9U U10A C12U C13A]	1.05
GGGUCGCAUAACUAUAAUCGCGUGGAUAUGGCACGCAAGUUUCUACCGGGCACCGUAAAUGUCCGACUGGAGCCGUUCGGGCGGCUAUAAACAGACCUCAGGCCCGAAGCGUGGCGGCACCUGCCGCCGGUGGUAAAAAAGAUCGGAAGAGCACACGUCU [U7C U8A G9U U10A U11A C13U]	1.19
GGGUCGACUUAGAAUAAUCGCGUGGAUAUGGCACGCAAGUUUCUACCGGGCACCGUAAAUGUCCGACUGGAGCCGUUCGGGCGGCUAUAAACAGACCUCAGGCCCGAAGCGUGGCGGCACCUGCCGCCGGUGGUAAAAAAGAUCGGAAGAGCACACGUCU [U7A U8C G9U U11A C12G C13A]	1.14
GGGUCGGACAGUAAUAAUCGCGUGGAUAUGGCACGCAAGUUUCUACCGGGCACCGUAAAUGUCCGACUGGAGCCGUUCGGGCGGCUAUAAACAGACCUCAGGCCCGAAGCGUGGCGGCACCUGCCGCCGGUGGUAAAAAAGAUCGGAAGAGCACACGUCU [U7G U8A G9C U10A U11G C12U C13A]	1.02
GGGUCGUUAUGGGAUAAUCGCGUGGAUAUGGCACGCAAGUUUCUACCGGGCACCGUAAAUGUCCGACUGGAGCCGUUCGGGCGGCUAUAAACAGACCUCAGGCCCGAAGCGUGGCGGCACCUGCCGCCGGUGGUAAAAAAGAUCGGAAGAGCACACGUCU [G9A U11G C12G C13G]	1.3
GGGUCGUCUACUCAUAAUCGCGUGGAUAUGGCACGCAAGUUUCUACCGGGCACCGUAAAUGUCCGACUGGAGCCGUUCGGGCGGCUAUAAACAGACCUCAGGCCCGAAGCGUGGCGGCACCUGCCGCCGGUGGUAAAAAAGAUCGGAAGAGCACACGUCU [U8C G9U U10A U11C C12U]	1.11
GGGUCGUAGUUGGAUAAUCGCGUGGAUAUGGCACGCAAGUUUCUACCGGGCACCGUAAAUGUCCGACUGGAGCCGUUCGGGCGGCUAUAAACAGACCUCAGGCCCGAAGCGUGGCGGCACCUGCCGCCGGUGGUAAAAAAGAUCGGAAGAGCACACGUCU [U8A C12G C13G]	1.18
GGGUCGGCCCAGGAUAAUCGCGUGGAUAUGGCACGCAAGUUUCUACCGGGCACCGUAAAUGUCCGACUGGAGCCGUUCGGGCGGCUAUAAACAGACCUCAGGCCCGAAGCGUGGCGGCACCUGCCGCCGGUGGUAAAAAAGAUCGGAAGAGCACACGUCU [U7G U8C G9C U10C U11A C12G C13G]	1.17
GGGUCGAAUACUCAUAAUCGCGUGGAUAUGGCACGCAAGUUUCUACCGGGCACCGUAAAUGUCCGACUGGAGCCGUUCGGGCGGCUAUAAACAGACCUCAGGCCCGAAGCGUGGCGGCACCUGCCGCCGGUGGUAAAAAAGAUCGGAAGAGCACACGUCU [U7A U8A G9U U10A U11C C12U]	1.1

Variant	aptazyme ON/OFF ratio
GGGUCGGCUCGGAAUAAUCGCGUGGAUAUGGCACGCAAGUUUCUACCGGGCACCGUAAAUGUCCGACUGGAGCCGUUCGGGCGGCUAUAAACAGACCUCAGGCCCGAAGCGUGGCGGCACCUGCCGCCGGUGGUAAAAAAGAUCGGAAGAGCACACGUCU [U7G U8C G9U U10C U11G C12G C13A]	1.08
GGGUCGUUUCGCAAUAAUCGCGUGGAUAUGGCACGCAAGUUUCUACCGGGCACCGUAAAUGUCCGACUGGAGCCGUUCGGGCGGCUAUAAACAGACCUCAGGCCCGAAGCGUGGCGGCACCUGCCGCCGGUGGUAAAAAAGAUCGGAAGAGCACACGUCU [G9U U10C U11G C13A]	1.36
GGGUCGAGCUAUAAUAAUCGCGUGGAUAUGGCACGCAAGUUUCUACCGGGCACCGUAAAUGUCCGACUGGAGCCGUUCGGGCGGCUAUAAACAGACCUCAGGCCCGAAGCGUGGCGGCACCUGCCGCCGGUGGUAAAAAAGAUCGGAAGAGCACACGUCU [U7A U8G G9C U11A C12U C13A]	1.4
GGGUCGUUCACUAAUAAUCGCGUGGAUAUGGCACGCAAGUUUCUACCGGGCACCGUAAAUGUCCGACUGGAGCCGUUCGGGCGGCUAUAAACAGACCUCAGGCCCGAAGCGUGGCGGCACCUGCCGCCGGUGGUAAAAAAGAUCGGAAGAGCACACGUCU [G9C U10A U11C C12U C13A]	1.25
GGGUCGGACCCCAAUAAUCGCGUGGAUAUGGCACGCAAGUUUCUACCGGGCACCGUAAAUGUCCGACUGGAGCCGUUCGGGCGGCUAUAAACAGACCUCAGGCCCGAAGCGUGGCGGCACCUGCCGCCGGUGGUAAAAAAGAUCGGAAGAGCACACGUCU [U7G U8A G9C U10C U11C C13A]	1.03
GGGUCGCACGGAUAUAAUCGCGUGGAUAUGGCACGCAAGUUUCUACCGGGCACCGUAAAUGUCCGACUGGAGCCGUUCGGGCGGCUAUAAACAGACCUCAGGCCCGAAGCGUGGCGGCACCUGCCGCCGGUGGUAAAAAAGAUCGGAAGAGCACACGUCU [U7C U8A G9C U10G U11G C12A C13U]	1.06
GGGUCGAUGUUAGAUAAUCGCGUGGAUAUGGCACGCAAGUUUCUACCGGGCACCGUAAAUGUCCGACUGGAGCCGUUCGGGCGGCUAUAAACAGACCUCAGGCCCGAAGCGUGGCGGCACCUGCCGCCGGUGGUAAAAAAGAUCGGAAGAGCACACGUCU [U7A C12A C13G]	1.2
GGGUCGUACGAAGAUAAUCGCGUGGAUAUGGCACGCAAGUUUCUACCGGGCACCGUAAAUGUCCGACUGGAGCCGUUCGGGCGGCUAUAAACAGACCUCAGGCCCGAAGCGUGGCGGCACCUGCCGCCGGUGGUAAAAAAGAUCGGAAGAGCACACGUCU [U8A G9C U10G U11A C12A C13G]	1.16
GGGUCGCUCAACAAUAAUCGCGUGGAUAUGGCACGCAAGUUUCUACCGGGCACCGUAAAUGUCCGACUGGAGCCGUUCGGGCGGCUAUAAACAGACCUCAGGCCCGAAGCGUGGCGGCACCUGCCGCCGGUGGUAAAAAAGAUCGGAAGAGCACACGUCU [U7C G9C U10A U11A C13A]	1.11
GGGUCGAUAUAAGAUAAUCGCGUGGAUAUGGCACGCAAGUUUCUACCGGGCACCGUAAAUGUCCGACUGGAGCCGUUCGGGCGGCUAUAAACAGACCUCAGGCCCGAAGCGUGGCGGCACCUGCCGCCGGUGGUAAAAAAGAUCGGAAGAGCACACGUCU [U7A G9A U11A C12A C13G]	1.16
GGGUCGACGACACAUAAUCGCGUGGAUAUGGCACGCAAGUUUCUACCGGGCACCGUAAAUGUCCGACUGGAGCCGUUCGGGCGGCUAUAAACAGACCUCAGGCCCGAAGCGUGGCGGCACCUGCCGCCGGUGGUAAAAAAGAUCGGAAGAGCACACGUCU [U7A U8C U10A U11C C12A]	1.09
GGGUCGACAACCUAUAAUCGCGUGGAUAUGGCACGCAAGUUUCUACCGGGCACCGUAAAUGUCCGACUGGAGCCGUUCGGGCGGCUAUAAACAGACCUCAGGCCCGAAGCGUGGCGGCACCUGCCGCCGGUGGUAAAAAAGAUCGGAAGAGCACACGUCU [U7A U8C G9A U10A U11C C13U]	1.04
GGGUCGUACAAAGAUAAUCGCGUGGAUAUGGCACGCAAGUUUCUACCGGGCACCGUAAAUGUCCGACUGGAGCCGUUCGGGCGGCUAUAAACAGACCUCAGGCCCGAAGCGUGGCGGCACCUGCCGCCGGUGGUAAAAAAGAUCGGAAGAGCACACGUCU [U8A G9C U10A U11A C12A C13G]	1.19
GGGUCGACUCCGAAUAAUCGCGUGGAUAUGGCACGCAAGUUUCUACCGGGCACCGUAAAUGUCCGACUGGAGCCGUUCGGGCGGCUAUAAACAGACCUCAGGCCCGAAGCGUGGCGGCACCUGCCGCCGGUGGUAAAAAAGAUCGGAAGAGCACACGUCU [U7A U8C G9U U10C U11C C12G C13A]	1.04
GGGUCGGGCGUGCAUAAUCGCGUGGAUAUGGCACGCAAGUUUCUACCGGGCACCGUAAAUGUCCGACUGGAGCCGUUCGGGCGGCUAUAAACAGACCUCAGGCCCGAAGCGUGGCGGCACCUGCCGCCGGUGGUAAAAAAGAUCGGAAGAGCACACGUCU [U7G U8G G9C U10G C12G]	1.21
GGGUCGACGCGUCAUAAUCGCGUGGAUAUGGCACGCAAGUUUCUACCGGGCACCGUAAAUGUCCGACUGGAGCCGUUCGGGCGGCUAUAAACAGACCUCAGGCCCGAAGCGUGGCGGCACCUGCCGCCGGUGGUAAAAAAGAUCGGAAGAGCACACGUCU [U7A U8C U10C U11G C12U]	1.3
GGGUCGGAAACGGAUAAUCGCGUGGAUAUGGCACGCAAGUUUCUACCGGGCACCGUAAAUGUCCGACUGGAGCCGUUCGGGCGGCUAUAAACAGACCUCAGGCCCGAAGCGUGGCGGCACCUGCCGCCGGUGGUAAAAAAGAUCGGAAGAGCACACGUCU [U7G U8A G9A U10A U11C C12G C13G]	1.05
GGGUCGCCAUUCCAUAAUCGCGUGGAUAUGGCACGCAAGUUUCUACCGGGCACCGUAAAUGUCCGACUGGAGCCGUUCGGGCGGCUAUAAACAGACCUCAGGCCCGAAGCGUGGCGGCACCUGCCGCCGGUGGUAAAAAAGAUCGGAAGAGCACACGUCU [U7C U8C G9A]	1.59
